Values of other authors, collected in paper PMC5323041.
Where two headings read alike, the source gives them in different places.

Key:
oxytocin (Mus musculus) [1] = biological target: oxytocin (Mus musculus) (UniProt P35454)
oxytocin (Mus musculus) [2] = biological target: oxytocin (Mus musculus) (UniProt P35454); remark: listed apart in the source

Sequence of UniProt P35454 (P35454 whole entry, looked up): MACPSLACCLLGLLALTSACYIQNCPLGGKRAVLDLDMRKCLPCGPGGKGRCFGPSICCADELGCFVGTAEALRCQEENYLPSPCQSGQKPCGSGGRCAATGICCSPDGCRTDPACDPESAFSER

| Substance | Kd (oxytocin (Mus musculus) [1]) [nM] | Kd (oxytocin (Mus musculus) [2]) [nM] |
| --- | --- | --- |
| vasopressin V1a receptor (from UniProt Q62463) | 25 |  |
| oxytocin receptor (from UniProt P97926) |  | 1 |
